# Source: patent US20130273553A9, “STABILIZATION OF CYCLIC PEPTIDE STRUCTURES” (priority 2007, published 2013)
# Key:
# LexA = LexA (Escherichia coli, UniProt P0A7C2); details: BL21-CP cells expressing the lariat, 0.1 μg/mL MMC, 0-3 hours
# Excerpt: FIG. 21. Biological Activity of L2 Lariat and Cyclic Peptide. […] Error bars represent the standard deviation of three independent experiments.
# [1] = system: SOS-regulated sulA promoter (sulA-GFP); assay: MMC-induced expression of sulA-GFP (SOS response genes), flow cytometry; type: cell-based, E. coli; details: SMR6039-DE3 with pETIL-L2, IPTG-induced versus uninduced, 0.1 μg/mL MMC
# Excerpt: (§1) FIG. 21. Biological Activity of L2 Lariat and Cyclic Peptide.
# We used the SMR6039 E. coli strain, which expresses GFP under the control of a SOS-regulated sulA promoter (Hastings, P. J. et al. (2004) PLoS Biol. 2:e399) to monitor induction of the SOS response pathway. We used the λDE3 Lysogenization Kit (Novagen) to modify SMR6039 to express T7 RNA polymerase, which allows expression of the L.2 lariat from the T7 promoter in pETIL-L2 plasmid. […] We measured the GFP fluorescence of the samples using flow cytometery (Epics X L, Coultier, Mississauga, ON). We scored cells as positive for SOS induction in they expressed more than one fluorescence unit of GFP.
# BL21-CP cells = assay: Bacterial viability (survival) assay with and without MMC; type: cell-based, E. coli; details: one hour
# Protocol: as §1
# FIG. 22. […] Survival assay for BL21-CP cells treated synthetic linear L2 peptide. Cell survival is reported relative to the untreated control.
# We performed cell viability assays as described by Lin and Little (Lin, L. L. & Little, J. W. (1988) Bacteriol. 170:2163-2173). For assays where L2 lariat is expressed from pET28b plasmid, we cultured BL21(DE3)-CP containing pETIL-L2 or pETIL-01 to an OD600 of 0.4 in LB-KAN at 37° C. We split the samples in two and induced one sample with 1 mM IPTG for 1 hour and left the other the other sample uninduced. […] We removed 10 μL and diluted it […] in ice cold LB (1 mL) for a zero time point control. We incubated the remaining sample at 37° C. for 1 hour and then removed 10 μL and diluted 1000-fold into 1 mL ice-cold LB. We plated a 60 μl aliquot from the 0 and 1 hour samples on LB plates and incubated the plates at 37° C. overnight.
# [2] = Amount of lactone-cyclized L2 lariat, ESI-TOF MS and Na18OH cleavage; type: physicochemical
# Excerpt: FIG. 17. Analysis of L2 Lariat. […] (i) Yeast growth on nonselective His^−,Trp^− glucose media. […] (i) Lariat cyclized through a lactone bond. (ii) Lariat cleaved prior to Na^18OH treatment.
# FIG. 20. Quantification of Lariat Prior to MS analysis. (a) Analysis of ^18O incorporation at the tyrosine carboxylic acid at position (IN−1). Trypsin digest of the Na^18OH treated lariat produces a peptide fragment containing tyrosine at position (IN−1) ([…]). The ^16O product has a calculated mass of 966.420 m/z and the ^18O product has a calculated mass of 968.420 m/z. (b) Mass spectrometry analysis of […] peptide fragment from the Na^16OH or Na^18OH treated samples over layed with the theoretical isotope distribution (MS-ISOTOPE software). In the Na^18OH treated sample there is a large deviation from the theoretical distribution indicating the presence of more than one peptide. […] The 1+ and 2+ charged fragments were analyzed and similar results were observed. Only the 1+ charge is shown. (d) Overlay of the sum of the calculated contributions of the ^18O and […] on the observed […] peptide fragment spectrum. (e) Analysis of ^18O incorporation at the serine side chain at position (IC+1). Trypsin digest of the Na^18OH treated lariat produces a peptide fragment containing serine at position (IC+1) ([…]). The mass of this fragment is 2590.352 m/z corresponding to a product 1 Da heavier than the predicted ^18O incorporated product. A 1 Da shift can be attributed to deamidation of asparagine. […] The 2+, 3+4+and 5+charged fragments were analyzed and similar results were obtained. […] (h) Overlay of the sum of the calculated contributions of the ^18O and ^16O peptides on the observed […] peptide fragment spectrum.
# We used LC-ESI-TOF MS to confirm the molecular weight of the His-tag lariat purified from E. coli. To confirm the presence of the lariat lactone prior to MS analysis, we treated His-tag lariat with 0.5 M Na^18OH, purified the products using reverse-phase HPLC, digested them with trypsin, and analyzed the molecular weight of the trypsin fragments using LC-ESI-TOF MS. […]
# [3] = His-tag lariat from pETIL-L2 in BL21-CP
# Sequence of LexA (P0A7C2 whole entry): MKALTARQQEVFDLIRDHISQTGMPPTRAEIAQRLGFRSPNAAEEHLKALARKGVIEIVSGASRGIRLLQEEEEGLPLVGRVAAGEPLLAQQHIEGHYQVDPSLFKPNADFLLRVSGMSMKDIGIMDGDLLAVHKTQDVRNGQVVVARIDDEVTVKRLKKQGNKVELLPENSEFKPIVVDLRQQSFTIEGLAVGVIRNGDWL
substance,measurement,setting,value
"L2 lariat: anti-LexA lariat, lactone-cyclized noose sequence (RSWDLPGEY), expressed from Ssp DnaE lariat intein with Asn to Ala at IC−1 (G7)",MMC-induced LexA cleavage,LexA,not observed after three hours
same,percentage of GFP expressing cells (sulA-GFP) after MMC,[1],decreases
same,viability with lariat expression plus MMC,"BL21-CP cells; of the control, IPTG induction plus MMC 0.1 μg/mL",< 1%
same,viability on expression of the lariat alone,"BL21-CP cells; of the uninduced controls, IPTG induction, no MMC, 0.85% NaCl",~35%
same,fraction of product corresponding to hydrolyzed lariat (8669 Da) by MS,[2]; [3],85%
same,fraction of product corresponding to the L2 lariat (8651 Da) by MS,[2]; [3],15%
same,lariat cyclized prior to MS analysis,[2]; from fraction of 18O incorporated after Na18OH cleavage and trypsin digest,46%
